Measurements taken from IntAct's records for PubMed 19415799.

B1: Cell division protein FtsZ (Escherichia coli (strain K12)), P0A9A6 (parent)
chain: MFEPMELTNDAVIKVIGVGGGGGNAVEHMVRERIEGVEFFAVNTDAQALRKTAVGQTIQIGSGITKGLGAGANPEVGRNAADEDRDALRAALEGADMVFIAAGMGGGTGTGAAPVVAEVAKDLGILTVAVVTKPFNFEGKKRMAFAEQGITELSKHVDSLITIPNDKLLKVLGRGISLLDAFGAANDVLKGAVQGIAELITRPGLMNVDFADVRTVMSEMGYAMMGSGVASGEDRAEEAAEMAISSPLLEDIDLSGARGVLVNITAGFDLRLDEFETVGNTIRAFASDNATVVIGTSLDPDMNDELRVTVVATGIGMDKRPEITLVTNKQVQQPVMDRYQQHGMAPLTQEQKPVAKVVNDNAPQTAKEPDYLDIPAFLRKQAD
partner: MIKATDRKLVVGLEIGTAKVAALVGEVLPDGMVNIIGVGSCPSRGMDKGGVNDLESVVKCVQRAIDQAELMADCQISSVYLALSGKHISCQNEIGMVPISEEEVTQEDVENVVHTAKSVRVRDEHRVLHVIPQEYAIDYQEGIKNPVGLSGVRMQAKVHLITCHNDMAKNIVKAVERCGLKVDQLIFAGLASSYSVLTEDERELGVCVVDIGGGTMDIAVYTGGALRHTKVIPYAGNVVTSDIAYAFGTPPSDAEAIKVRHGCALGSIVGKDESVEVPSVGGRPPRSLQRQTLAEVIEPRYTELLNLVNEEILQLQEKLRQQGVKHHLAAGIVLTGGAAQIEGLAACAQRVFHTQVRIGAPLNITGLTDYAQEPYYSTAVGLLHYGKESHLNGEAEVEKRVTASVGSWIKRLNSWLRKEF

Variants of: B1
Settings: with ftsa_ecoli ftsA

Row | Variant | effect of a mutation on the interaction
1 | I374V | decreasing interaction strength
